# Patent US7824885B2, “Engineered proteases for affinity purification and processing of fusion proteins” (University of Maryland, College Park, priority 2003, dated 2010)
# Legend:
# Type in all cases: biochemical
# [1] = tested on: fusion protein pR58-GB; assay: kinetics of fusion protein pR58-GB cleavage by D32 mutants, anion triggered; conditions: 0.1M KPi; for Rate vs. [Cl]: pH 8.8, 23 C; for Rate vs. pH: 23 C
# Text: Particularly advantageous are processing proteases whose activity is triggered on demand. Ions which have been useful as triggers are OH— (pH), Cl— and F—. The tables summarize cleavage rates of various D32 mutants as a function of specific anion.
# Thus, S189 can be trigger to increase cleavage rates if desired and this can be very advantageous when required in a purification process. Once the fusion protein is bonded to the subtilisin variant to form a binding complex, the target protein can be cleaved from the prodomain protein by activation of the subtilisin variant with the introduction of an activating ion solution.
# [2] = tested on: 671 (pR58FKAM-GB); assay: fluoride-triggered cleavage/elution of 671 fusion protein on S189HT1 column; conditions: cleavage/elution by 0.1M KF, FIG. 14
# Description: (10 μl of 1 ml fraction 1; ˜7 μg total) • Lane 6: cleavage/elution by 0.1 M KF. (10 μl of 1 ml fraction 2; ˜3 μg total) • Lane 7: strip by 0.1 M H3PO4 (10 μl of 1 ml fraction 1; ˜10 μg total in both bands combined).
# [3] = tested on: pR58-GB; assay: binding and cleavage of pR58-GB on immobilized S189 matrix
# Description: The binding and catalytic properties of processing subtilisin allows them to be used as both the affinity matrix and processing protease for purification of proteins tagged with the pR58 sequence.
# An E. coli cell lysate containing pR58-GB was passed over the matrix containing immobilized S189. Cleavage of the bound fusion protein then was then effected either by addition of a triggering anion (e.g. 10 mM KF) or by extended incubation (e.g. 18 hours at pH 7.2) as shown in FIG. 6. After cleavage the pure, processed protein was washed off the matrix while the cognate prodomain remains tightly bound to subtilisin on the matrix. Multiple rounds of purification can be affected by stripping the pR58 from the S189 column at pH 2.1 and re-equilibrating the column at neutral pH. High stable and facile-folding mutants such as those listed in the Table 1 (FIG. 3) of Processing Subtilisin are required for column recycling.
molecule,measurement,setting,value
"S189: processing subtilisin with D32A mutation (protein, UniProt P00782 108-382, looked up, variant D32A) Subtilisin BPN': AQSVPYGVSQIKAPALHSQGYTGSNVKVAVIASGIDSSHPDLKVAGGASMVPSETNPFQDNNSHGTHVAGTVAALNNSIGVLGVAPSASLYAVKVLGADGSGQYSWIINGIEWAIANNMDVINMSLGGPSGSAALKAAVDKAVASGVVVVAAAGNEGTSGSSSTVGYPGKYPSVIAVGAVDSSNQRASFSSVGPELDVMAPGVSIQSTLPGNKYGAYNGTSMASPHVAGAAALILSKHPNWTNTQVRSSLENTTTKLGDSFYYGKGLINVQAAAQ",Rate,"[1]; pH 7.2, 23 C",0.18 h⁻¹
same,Rate vs. [Cl],[1]; [Cl] 0 M,0.97 h⁻¹
same,Rate vs. [Cl],[1]; [Cl] 0.5 M,5 h⁻¹
same,Rate vs. [F],"[1]; [F] 0 mM, pH 7.2, 23 C",0.003 min⁻¹
same,Rate vs. [F],"[1]; [F] 1 mM, pH 7.2, 23 C",0.018 min⁻¹
same,Rate vs. [F],"[1]; [F] 10 mM, pH 7.2, 23 C",0.14 min⁻¹
same,Rate vs. [F],"[1]; [F] 100 mM, pH 7.2, 23 C",0.8 min⁻¹
same,Rate vs. pH,[1]; pH 5.7,0.135 hr^−1
same,Rate vs. pH,[1]; pH 7.2,0.18 hr^−1
same,Rate vs. pH,[1]; pH 8.8,0.97 hr^−1
same,Rate vs. pH,[1]; pH 10.0,4 hr^−1
same,cleavage reaction complete,[2],~90%
same,rate of binding to the prodomain,[3]; FIG. 5,rapid
same,half-time of cleavage,"[3]; FIG. 6, a lag phase is evident",about four
